We go through two compounds from paper PMC5423775, “Structure of a AAA+ unfoldase in the process of unfolding substrate” (eLife, 2017).

For orientation: stoichiometry N means the number of molecules, sites or subunits per partner or assembly.

The target in assay [1] is ΔN-VAT (Thermoplasma acidophilum VAT with the regulatory N-terminal domain removed) (Thermoplasma acidophilum) (UniProt O05209). Nature of the assay: cryo-EM structure; purified ΔN-VAT at ~20 mg/mL, 50 mM HEPES pH 7.5, 100 mM NaCl, 5 mM ATPγS, 0.05% IGEPAL CA-630; six-fold symmetric stacked-ring class (~85% of particle images), C6 symmetry applied, 3.9 Å.
For assay [2], the target named is T1, ΔN-VAT (Thermoplasma acidophilum, UniProt O05209).
T1 construct: N-terminal regulatory domain removed (Methods: 181 residues deleted; b5 says first 182), NBD1 + NBD2; N-terminal His6 tag with TEV site, pProEx vector; homohexamer
T1 sequence (O05209 182-745, stated change not applied): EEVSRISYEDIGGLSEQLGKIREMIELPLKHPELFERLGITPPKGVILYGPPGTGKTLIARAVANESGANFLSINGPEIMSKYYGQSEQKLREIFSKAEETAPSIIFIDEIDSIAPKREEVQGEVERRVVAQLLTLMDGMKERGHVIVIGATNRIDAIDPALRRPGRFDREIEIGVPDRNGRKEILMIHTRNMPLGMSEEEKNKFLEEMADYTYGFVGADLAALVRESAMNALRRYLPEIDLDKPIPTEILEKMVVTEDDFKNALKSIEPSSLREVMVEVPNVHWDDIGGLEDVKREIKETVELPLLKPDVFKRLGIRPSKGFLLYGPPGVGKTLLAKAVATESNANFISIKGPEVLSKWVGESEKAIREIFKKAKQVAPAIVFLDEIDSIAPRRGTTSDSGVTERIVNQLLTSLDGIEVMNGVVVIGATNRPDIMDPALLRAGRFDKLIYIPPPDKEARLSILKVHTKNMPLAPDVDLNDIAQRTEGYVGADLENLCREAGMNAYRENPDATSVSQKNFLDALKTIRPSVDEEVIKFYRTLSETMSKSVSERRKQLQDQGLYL
Put plainly: cryo-EM structure, […] Å. Format: binding. The note with it: 5 mM ATPγS, 50 mM HEPES pH 7.5, 100 mM NaCl; all twelve NBD1 and NBD2 nucleotide sites; six-fold symmetric stacked-ring state.

Take “ΔN-VAT (Thermoplasma acidophilum VAT with the regulatory N-terminal domain removed) (from UniProt O05209 182-745) (enzyme)”: in assay [1], the stoichiometry N was found to be 6.
Take `Nc1ncnc2c1ncn2[C@@H]1O[C@H](COP(=O)(O)OP(=O)(O)OP(O)(O)=S)[C@@H](O)[C@H]1O` [ATPγS]: the “cryo-EM structure, 3.9 Å” value in assay [2] is listed as “Density corresponding to ATPγS is visible in all twelve catalytic sites”.
